# ± gives the uncertainty stated by the source.
# B1: RAS guanyl-releasing protein 1, residues 539 to 593; numbered along this chain, O95267 (parent)
# chain: GFPHNFQETTYLKPTFCDNCAGFLWGVIKQGYRCKDCGMNCHKQCKDLVVFECKK
# Variants of: B1
# Assay: abundance fitness (aPCA) (normalised: wild type 0, dead -1); higher = more abundant; growth selection in yeast, the domain comes from the species named
# Conditions: Homo sapiens
row,Variant,abundance fitness
1,GFPHNAQETTYLKPTFCDNCAGFLWGVIKQGYRCKDCGMNCHKQCKDLVVFECKK,-0.267 ± 0.062
2,GFPHNLQETTYLKPTFCDNCAGFLWGVIKQGYRCKDCGMNCHKQCKDLVVFECKK,-0.138 ± 0.078
3,GFPHNFQETTYLKPTFCDNCAGFLWGVISQGYRCKDCGMNCHKQCKDLVVFECKK,-0.086 ± 0.072
4,GFPHNFQETTYLKPTFCDNCAGFLWGVIKQGYRCMDCGMNCHKQCKDLVVFECKK,-0.266 ± 0.099
5,GFPHNFQETTYLKPTFCDNCAGFLWGVIKQGYRCVDCGMNCHKQCKDLVVFECKK,-0.135 ± 0.07
6,GFPHNFQETTYLKPTFCDNCAGFLWGVIKQGYRCTDCGMNCHKQCKDLVVFECKK,-0.022 ± 0.08
7,GFPHNFQETTYLKPTFCDNCAGFLWGVIKQGYRCPDCGMNCHKQCKDLVVFECKK,-0.134 ± 0.11
8,GFPHNFQETTYLKPTFCDNCAGFLWGVIKAGYRCKDCGMNCHKQCKDLVVFECKK,-0.597 ± 0.12
9,GFPHNFQETTYLKPTFCDNCAGFLWGVIKSGYRCKDCGMNCHKQCKDLVVFECKK,-0.54 ± 0.061
10,GFPHNFQETTYLKPTFCDNCAGFLWGVIKEGYRCKDCGMNCHKQCKDLVVFECKK,-0.589 ± 0.058
11,GFCHNFQETTYLKPTFCDNCAGFLWGVIKQGYRCKDCGMNCHKQCKDLVVFECKK,0.291 ± 0.12
12,GFNHNFQETTYLKPTFCDNCAGFLWGVIKQGYRCKDCGMNCHKQCKDLVVFECKK,0.227 ± 0.087
13,GFFHNFQETTYLKPTFCDNCAGFLWGVIKQGYRCKDCGMNCHKQCKDLVVFECKK,0.483 ± 0.25
14,GFPHNFQETTYLKPTFCDNCAGFLWGVIKQGYRCKDCGMNCHKQCKDLVVVECKK,-0.046 ± 0.077
15,GFPHNFQETTYLKPTFCDNCAGFLWGVIKQGYRCKDCGMNCHKQCKDLVVMECKK,-0.029 ± 0.054
16,GFPHNFQETTYLKPTFCDNCAGFLWGVIKQGYRCKDCGMNCHKQCKDLVVPECKK,-0.07 ± 0.064
17,GFPHNFQETTYLKPTFCDNCAGFLWGVIKQGYRCKDCGMNCHKQMKDLVVFECKK,-0.57 ± 0.18
18,GFPHNFQETTYLKPTFCDNCAGFLWGVIKQGYRCKDCGMNCHKQDKDLVVFECKK,-0.036 ± 0.13
19,GFPHNFQETTYLKPTFCDNCAGFLWGVIKQGYRCKDCGMNCHKQYKDLVVFECKK,-0.575 ± 0.061
20,GFPHNFQETTYLKPTFCDNCAGFLWGVIKQGYRCKDCGMNCHKQLKDLVVFECKK,-0.976 ± 0.13
21,GFPHNFQETTYLKPTFCDNCAGFLWGVIKQFYRCKDCGMNCHKQCKDLVVFECKK,-0.205 ± 0.15
22,GFPHNFQETTYLKPTFCDNCAGFWWGVIKQGYRCKDCGMNCHKQCKDLVVFECKK,-0.617 ± 0.054
23,GFPHNFQETTYLKPTFCDNCAGFNWGVIKQGYRCKDCGMNCHKQCKDLVVFECKK,-0.303 ± 0.06
24,GFPHNFQETTYLKPTFCDNCAGFTWGVIKQGYRCKDCGMNCHKQCKDLVVFECKK,-0.279 ± 0.11

row,Variant,abundance fitness
1,GFPHNFQETTYLKPTFCDNCAGFLWGVIKQGYRCKDCGMNCHKQCKSLVVFECKK,0.068 ± 0.082
2,GFPHNFQETTYLKPTFCDNCAGFLWGVIKQGYRCKDCGMNCHKQCKWLVVFECKK,-0.142 ± 0.082
3,GFPHNFQETTYLKPTFCDNCAGFLWGVIKQGYRCKDCGMNCHKQCKYLVVFECKK,-0.105 ± 0.14
4,GFPHNFQETTYLKPTFCDNCAGFLWGVIKQGYRCKCCGMNCHKQCKDLVVFECKK,-0.245 ± 0.14
5,GFPHNFQETTYLKPTFCDNCAGFLWGVIKQGYRCKTCGMNCHKQCKDLVVFECKK,-0.02 ± 0.11
6,GFPHNFQETTYLKPTFCDNCAGFLWGVIKQGYRCKYCGMNCHKQCKDLVVFECKK,-0.296 ± 0.14
7,GFPHNFQETTYLKPTFCDNCAGFLWGVIKQGYSCKDCGMNCHKQCKDLVVFECKK,-0.025 ± 0.058
8,GFPHNFQETTYLKPTFCDNCAGFLWGVIKQGYLCKDCGMNCHKQCKDLVVFECKK,-0.078 ± 0.078
9,GVPHNFQETTYLKPTFCDNCAGFLWGVIKQGYRCKDCGMNCHKQCKDLVVFECKK,-0.282 ± 0.075
10,GWPHNFQETTYLKPTFCDNCAGFLWGVIKQGYRCKDCGMNCHKQCKDLVVFECKK,-0.523 ± 0.16
11,GDPHNFQETTYLKPTFCDNCAGFLWGVIKQGYRCKDCGMNCHKQCKDLVVFECKK,-0.086 ± 0.059
12,GIPHNFQETTYLKPTFCDNCAGFLWGVIKQGYRCKDCGMNCHKQCKDLVVFECKK,0.097 ± 0.06
13,GTPHNFQETTYLKPTFCDNCAGFLWGVIKQGYRCKDCGMNCHKQCKDLVVFECKK,-0.15 ± 0.097
14,GFPHNFQETTYLKPTFCDNCAGFLWGVIKQGYRCKDCGMNMHKQCKDLVVFECKK,-0.281 ± 0.15
15,GFPHNFQETTYLKPTFCDNCAGFLWGVIKQGYRCKDCGMNNHKQCKDLVVFECKK,-0.47 ± 0.24
16,GFPHNFQETTYLKPTFCDNCAGFLWGVIKQGYRCKDCGMNQHKQCKDLVVFECKK,-0.484 ± 0.17
17,GFPHNFQETTYLKPTFCDNCAGFLWGVIKQGYRCKDCGMNCHKQCKDLVVFPCKK,-0.066 ± 0.071
18,GFPHNFQETTYLKPTFCDNCAGFLWGVIKQGGRCKDCGMNCHKQCKDLVVFECKK,-0.186 ± 0.069
19,GFPHNFQETTYLKPTFCDNCAGFLWGVIKQGYRCKDCGMNCHPQCKDLVVFECKK,-0.146 ± 0.09
20,GFPHNFQETTYLKPTFCDNCAGFLWGVIKQGYRCKDCGMNCHMQCKDLVVFECKK,-0.031 ± 0.093
21,GFPHNFQETTYLKPTFCDNCAGFLWGVIKQGYRCKDCGMNCHSQCKDLVVFECKK,-0.006 ± 0.061
22,GFPHNFQETTYLKPEFCDNCAGFLWGVIKQGYRCKDCGMNCHKQCKDLVVFECKK,-0.401 ± 0.062
23,GFPHNFQETTYLKPTFCDNCGGFLWGVIKQGYRCKDCGMNCHKQCKDLVVFECKK,-0.084 ± 0.054
24,GFPQNFQETTYLKPTFCDNCAGFLWGVIKQGYRCKDCGMNCHKQCKDLVVFECKK,-0.804 ± 0.16

# Reference: the Human Domainome abundance scans (Beltran et al. 2025)
